Each block holds one molecule with its values, some of them ahead of it. No end group written: not given here.
Legend:
albumin = molecular target: T1, albumin (Oryctolagus cuniculus, UniProt P49065); experiment: Affinity chromatography of crude rabbit serum on a column of immobilized ligand: retention or carry-over of albumin; format: binding
T1 construct: tissue SIGMA R 9133; host or cells: crude rabbit serum
Description: (§1) In order to purify immunoglobulins, the column was equilibrated with a 25 mM BIS-TRIS buffer (SIGMA, Cat. B9754) pH 6.5, at a flow rate of 1 ml/min, while the eluent was monitored at 280 nm. One milliliter of crude rabbit serum (SIGMA Cat. No. R 9133) was then loaded on the column, and after elution of non retained material at the column void volume, the eluent was changed to 0.1 M acetic acid.
(§2) Material desorbed by such a treatment was collected and analyzed by electrophoretic analysis on a polyacrylamide gel.
(§3) The purification of rabbit immunoglobulins from crude serum by affinity chromatography is shown in FIG. 1 while the electrophoretic analysis of the collected fractions is shown in FIG. 2. […] Furthermore, in FIG. 2 are also shown the electrophoretic analyses corresponding to several rabbit immunoglobulins purifications obtained after equilibration of the affinity column with different buffers, namely 0.1 M ammonium acetate pH 5.7 (A), 0.1 M sodium phosphate pH 7.0 (B), or 0.1 M sodium phosphate pH 8.5 (C).
Indeed similar results were attained with other supports such as Protein-Pak (Waters, USA), Eupergit C30N (Sigma, USA) and Affi-Gel (Bio-Rad, USA).

rabbit immunoglobulins = experiment: Affinity chromatography of crude rabbit serum on a column of immobilized peptide, with polyacrylamide gel electrophoresis of the fractions; format: binding
Description: The peptide of formula (H-L-Arg-L-Thr-L-Tyr-)4-Lys2-Lys-Gly-OH (5 mg) was dissolved in 5 ml of 0.1 M sodium bicarbonate buffer pH 9.0 and then added to 1.2 g of activated resin CH-Sepharose 4B (Pharmacia, Uppsala, Sweden Cat. No. 17-0490-01), which is a chromatographic support for affinity chromatography preactivated for the direct coupling to peptides and proteins. The suspension was shaken for 24 h and the coupling level was monitored by taking aliquots of the reaction mixture at different times and subsequent RP-HPLC analysis.
Approximately 90% of initial peptide resulted covalently linked to the resin after 24 h. The derivatized resin was washed with 50 ml of 1 M TRIS pH 9.0 and then packed on a glass column (100×6.6 mm I.D.).
as §1, §2, §3

[1] = molecular target: albumin of crude rabbit serum (rabbit, UniProt P49065 25-608); experiment: affinity chromatography of crude rabbit serum on the peptide immobilised on CH-Sepharose 4B; SDS-PAGE of fractions
albumin of crude rabbit serum, sequence (P49065 25-608 limits assumed): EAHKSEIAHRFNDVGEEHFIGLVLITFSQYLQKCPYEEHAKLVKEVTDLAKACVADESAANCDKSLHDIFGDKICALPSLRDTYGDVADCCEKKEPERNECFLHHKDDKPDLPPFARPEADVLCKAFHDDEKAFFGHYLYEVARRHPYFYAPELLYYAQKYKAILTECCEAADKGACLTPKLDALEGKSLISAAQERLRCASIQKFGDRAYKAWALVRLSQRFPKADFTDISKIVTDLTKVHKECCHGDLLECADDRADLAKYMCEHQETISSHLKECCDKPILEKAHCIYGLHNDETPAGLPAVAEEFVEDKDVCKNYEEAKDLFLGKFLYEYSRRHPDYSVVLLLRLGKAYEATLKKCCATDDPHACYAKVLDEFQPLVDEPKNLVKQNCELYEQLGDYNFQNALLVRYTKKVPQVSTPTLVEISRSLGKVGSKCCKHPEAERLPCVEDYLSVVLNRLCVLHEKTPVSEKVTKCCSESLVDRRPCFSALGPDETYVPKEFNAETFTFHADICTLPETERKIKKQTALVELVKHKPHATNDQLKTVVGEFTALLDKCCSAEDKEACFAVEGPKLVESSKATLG

T1 sequence (P49065 25-608): as the sequence (P49065 25-608 limits assumed) above

Molecule: protein A: protein obtained from Staphylococcus aureus, binds specifically to the constant portion of immunoglobulins; comparator affinity ligand [reference compound]
- albumin in the purified fractions (albumin; same serum, immobilized protein A column of the same dimensions): always comprising traces of albumin

- retention of albumin by the column (albumin; 1 ml crude rabbit serum, 25 mM BIS-TRIS pH 6.5, peptide on CH-Sepharose 4B): albumin was not retained
Molecule: (H-L-Arg-L-Thr-L-Tyr-)4-Lys2-Lys-Gly-OH (peptide H-Arg-Thr-Tyr; chain KKKG-OH; also: branched tetramer: four RTY arms on the alpha and epsilon amines of two Lys, which are attached to the alpha and epsilon amines of a central Lys followed by Gly)
- purification of immunoglobulins from contaminants after equilibration with different buffers (rabbit immunoglobulins; 0.1 M ammonium acetate pH 5.7, 0.1 M sodium phosphate pH 7.0 or pH 8.5, desorbed with 0.1 M acetic acid): optimal purification of immunoglobulins from contaminants was achieved
- retention of the immunoglobulin fraction from crude serum by the column (rabbit immunoglobulins; 1 ml crude rabbit serum, 25 mM BIS-TRIS pH 6.5, elution with 0.1 M acetic acid, peptide on CH-Sepharose 4B): able to retain the immunoglobulin fraction from the crude serum
- purification capability of the column (rabbit immunoglobulins; immunoglobulins purified from 0.5 ml, 1 ml and 1.5 ml of serum): remarkable purification capability
- column selectivity compared with immobilized protein A columns (albumin; same serum, columns of the same dimensions): superior to that of columns with immobilized protein A

- binding result [1]: no binding
B1: (H-L-Arg-L-Thr-L-Tyr-)4-Lys2-Lys-Gly-OH (peptide)
peptide: H-Arg-Thr-Tyr
chain: KKKG-OH
modifications: also: branched tetramer: four RTY arms on the alpha and epsilon amines of two Lys, which are attached to the alpha and epsilon amines of a central Lys followed by Gly
notes: Synthetic branched tetramer; also called (H2N-Arg-Thr-Tyr-CO)4-Lys2Lys-Gly-OH; tetrameric tripeptide (H-L-Arg-L-Thr-L-Tyr-)4-Lys2-Lys-COOH
